Measurements reported in article PMC9912261.

Columns and labels:
[1] = system: Lys1 (position 1, -----K-----); test: NMR; details: ambient (SI general details say 1H NMR spectra were recorded at ambient temperature); none stated; pH adjusted with HCl/NaOH; free small peptide derivative in solution
[2] = system: Lys1 (position 1, -----KG----); test: NMR; details: ambient (SI general details say 1H NMR spectra were recorded at ambient temperature); none stated; pH adjusted with HCl/NaOH; free small peptide derivative in solution

Row | Substance | pKa [1] | pKa [2]
1 | Ac-Lys-CN (N-acetyl-lysine nitrile) (synthetic) | approximately 10.4 | –
2 | Ac-Lys-Gly-SH (N-acetyl-lysyl-glycine thioacid) (synthetic) | – | approximately 10.8
3 | Ac-Lys-OH (N-alpha-acetyl-lysine) (synthetic) | approximately 10.8 | –
4 | Ac-Lys-SH (N-acetyl-lysine thioacid) (synthetic) | approximately 10.8 | –
